Reference: patent US20040018957A1, “Crystal structure of a Ras-P13K complex” (priority 2000, published 2004)

Molecular target: T1, N-Ras.mant-GMPPNP (Homo sapiens, UniProt P01111)
T1 construct: fluorescence anisotropy of full length, unmodified N-Ras.mant-GMPPNP
Assay: Fluorescence anisotropy titration of PI3Kγ 144-1102 into N-Ras.mant-GMPPNP
Format: binding
Conditions: mutants in the 144-1102 construct, FIG. 2A
Procedure: Mant-nucleotides were synthesised as described previously (Jameson and Eccleston, 1997). N-Ras and H-Ras mutants were loaded with mant-GMPPNP as in (Moore et al., 1993), gel filtered into running buffer (20 mM Tris pH 7.5, 2 mM MgCl2, 1 mM DTT), and frozen at −80° C. The concentration of Ras.mant-GMPPNP was determined by measuring the absorbance of the mant group at […] with ε=5700 M^−1 cm^−1 (Hiratsuka, 1983). For binding assays, the 144-1102 human PI3Kγ was titrated into a 1 μM solution of fill length, unmodified N-Ras.mant-GMPPNP. Data were collected with SLM 8000 S and ISS PC1 spectrofluorimeters, set up in the T-format and L-format, respectively, with prism polarizers. All measurements were taken at 20° C. with a λex of 366 nm. Both emission PMTs were fitted with 399 nm cutoff filters. Five measurements of each data point were obtained and averaged. Data were fitted to the binding equation.

T1 sequence (P01111 whole entry): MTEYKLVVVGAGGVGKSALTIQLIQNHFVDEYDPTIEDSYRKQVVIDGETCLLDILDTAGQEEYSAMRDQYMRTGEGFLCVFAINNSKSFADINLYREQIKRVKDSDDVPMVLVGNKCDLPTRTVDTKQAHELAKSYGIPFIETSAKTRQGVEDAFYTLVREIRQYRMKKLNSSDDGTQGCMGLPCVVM

Molecule | effect of PI3Kγ RBD mutation on binding to Ras
E267K: tighter-binding PI3Kγ mutant (protein, UniProt P48736 1-1102, looked up, variant E267K) Phosphatidylinositol …: MELENYKQPVVLREDNCRRRRRMKPRSAAASLSSMELIPIEFVLPTSQRKCKSPETALLHVAGHGNVEQMKAQVWLRALETSVAADFYHRLGPHHFLLLYQKKGQWYEIYDKYQVVQTLDCLRYWKATHRSPGQIHLVQRHPPSEESQAFQRQLTALIGYDVTDVSNVHDDELEFTRRGLVTPRMAEVASRDPKLYAMHPWVTSKPLPEYLWKKIANNCIFIVIHRSTTSQTIKVSPDDTPGAILQSFFTKMAKKKSLMDIPESQSKQDFVLRVCGRDEYLVGETPIKNFQWVRHCLKNGEEIHVVLDTPPDPALDEVRKEEWPLVDDCTGVTGYHEQLTIHGKDHESVFTVSLWDCDRKFRVKIRGIDIPVLPRNTDLTVFVEANIQHGQQVLCQRRTSPKPFTEEVLWNVWLEFSIKIKDLPKGALLNLQIYCGKAPALSSKASAESPSSESKGKVQLLYYVNLLLIDHRFLLRRGEYVLHMWQISGKGEDQGSFNADKLTSATNPDKENSMSISILLDNYCHPIALPKHQPTPDPEGDRVRAEMPNQLRKQLEAIIATDPLNPLTAEDKELLWHFRYESLKHPKAYPKLFSSVKWGQQEIVAKTYQLLARREVWDQSALDVGLTMQLLDCNFSDENVRAIAVQKLESLEDDDVLHYLLQLVQAVKFEPYHDSALARFLLKRGLRNKRIGHFLFWFLRSEIAQSRHYQQRFAVILEAYLRGCGTAMLHDFTQQVQVIEMLQKVTLDIKSLSAEKYDVSSQVISQLKQKLENLQNSQLPESFRVPYDPGLKAGALAIEKCKVMASKKKPLWLEFKCADPTALSNETIGIIFKHGDDLRQDMLILQILRIMESIWETESLDLCLLPYGCISTGDKIGMIEIVKDATTIAKIQQSTVGNTGAFKDEVLNHWLKEKSPTEEKFQAAVERFVYSCAGYCVATFVLGIGDRHNDNIMITETGNLFHIDFGHILGNYKSFLGINKERVPFVLTPDFLFVMGTSGKKTSPHFQKFQDICVKAYLALRHHTNLLIILFSMMLMTGMPQLTSKEDIEYIRDALTVGKNEEDAKKYFLDQIEVCRDKGWTVQFNWFLHLVLGIKQGEKHSA | tighter-binding
Lys-254: PI3Kγ mutant, Lys-254 mutated to Ala (protein, UniProt P48736 1-1102, looked up, variant K254A) Phosphatidylinositol …: MELENYKQPVVLREDNCRRRRRMKPRSAAASLSSMELIPIEFVLPTSQRKCKSPETALLHVAGHGNVEQMKAQVWLRALETSVAADFYHRLGPHHFLLLYQKKGQWYEIYDKYQVVQTLDCLRYWKATHRSPGQIHLVQRHPPSEESQAFQRQLTALIGYDVTDVSNVHDDELEFTRRGLVTPRMAEVASRDPKLYAMHPWVTSKPLPEYLWKKIANNCIFIVIHRSTTSQTIKVSPDDTPGAILQSFFTKMAAKKSLMDIPESQSEQDFVLRVCGRDEYLVGETPIKNFQWVRHCLKNGEEIHVVLDTPPDPALDEVRKEEWPLVDDCTGVTGYHEQLTIHGKDHESVFTVSLWDCDRKFRVKIRGIDIPVLPRNTDLTVFVEANIQHGQQVLCQRRTSPKPFTEEVLWNVWLEFSIKIKDLPKGALLNLQIYCGKAPALSSKASAESPSSESKGKVQLLYYVNLLLIDHRFLLRRGEYVLHMWQISGKGEDQGSFNADKLTSATNPDKENSMSISILLDNYCHPIALPKHQPTPDPEGDRVRAEMPNQLRKQLEAIIATDPLNPLTAEDKELLWHFRYESLKHPKAYPKLFSSVKWGQQEIVAKTYQLLARREVWDQSALDVGLTMQLLDCNFSDENVRAIAVQKLESLEDDDVLHYLLQLVQAVKFEPYHDSALARFLLKRGLRNKRIGHFLFWFLRSEIAQSRHYQQRFAVILEAYLRGCGTAMLHDFTQQVQVIEMLQKVTLDIKSLSAEKYDVSSQVISQLKQKLENLQNSQLPESFRVPYDPGLKAGALAIEKCKVMASKKKPLWLEFKCADPTALSNETIGIIFKHGDDLRQDMLILQILRIMESIWETESLDLCLLPYGCISTGDKIGMIEIVKDATTIAKIQQSTVGNTGAFKDEVLNHWLKEKSPTEEKFQAAVERFVYSCAGYCVATFVLGIGDRHNDNIMITETGNLFHIDFGHILGNYKSFLGINKERVPFVLTPDFLFVMGTSGKKTSPHFQKFQDICVKAYLALRHHTNLLIILFSMMLMTGMPQLTSKEDIEYIRDALTVGKNEEDAKKYFLDQIEVCRDKGWTVQFNWFLHLVLGIKQGEKHSA | greatly lowers the affinity
D260A: PI3Kγ RBD mutant (protein, UniProt P48736 1-1102, looked up, variant D260A) Phosphatidylinositol …: MELENYKQPVVLREDNCRRRRRMKPRSAAASLSSMELIPIEFVLPTSQRKCKSPETALLHVAGHGNVEQMKAQVWLRALETSVAADFYHRLGPHHFLLLYQKKGQWYEIYDKYQVVQTLDCLRYWKATHRSPGQIHLVQRHPPSEESQAFQRQLTALIGYDVTDVSNVHDDELEFTRRGLVTPRMAEVASRDPKLYAMHPWVTSKPLPEYLWKKIANNCIFIVIHRSTTSQTIKVSPDDTPGAILQSFFTKMAKKKSLMAIPESQSEQDFVLRVCGRDEYLVGETPIKNFQWVRHCLKNGEEIHVVLDTPPDPALDEVRKEEWPLVDDCTGVTGYHEQLTIHGKDHESVFTVSLWDCDRKFRVKIRGIDIPVLPRNTDLTVFVEANIQHGQQVLCQRRTSPKPFTEEVLWNVWLEFSIKIKDLPKGALLNLQIYCGKAPALSSKASAESPSSESKGKVQLLYYVNLLLIDHRFLLRRGEYVLHMWQISGKGEDQGSFNADKLTSATNPDKENSMSISILLDNYCHPIALPKHQPTPDPEGDRVRAEMPNQLRKQLEAIIATDPLNPLTAEDKELLWHFRYESLKHPKAYPKLFSSVKWGQQEIVAKTYQLLARREVWDQSALDVGLTMQLLDCNFSDENVRAIAVQKLESLEDDDVLHYLLQLVQAVKFEPYHDSALARFLLKRGLRNKRIGHFLFWFLRSEIAQSRHYQQRFAVILEAYLRGCGTAMLHDFTQQVQVIEMLQKVTLDIKSLSAEKYDVSSQVISQLKQKLENLQNSQLPESFRVPYDPGLKAGALAIEKCKVMASKKKPLWLEFKCADPTALSNETIGIIFKHGDDLRQDMLILQILRIMESIWETESLDLCLLPYGCISTGDKIGMIEIVKDATTIAKIQQSTVGNTGAFKDEVLNHWLKEKSPTEEKFQAAVERFVYSCAGYCVATFVLGIGDRHNDNIMITETGNLFHIDFGHILGNYKSFLGINKERVPFVLTPDFLFVMGTSGKKTSPHFQKFQDICVKAYLALRHHTNLLIILFSMMLMTGMPQLTSKEDIEYIRDALTVGKNEEDAKKYFLDQIEVCRDKGWTVQFNWFLHLVLGIKQGEKHSA | reduce binding by up to an order of magnitude
R226A: PI3Kγ RBD mutant (protein, UniProt P48736 1-1102, looked up, variant R226A) Phosphatidylinositol …: MELENYKQPVVLREDNCRRRRRMKPRSAAASLSSMELIPIEFVLPTSQRKCKSPETALLHVAGHGNVEQMKAQVWLRALETSVAADFYHRLGPHHFLLLYQKKGQWYEIYDKYQVVQTLDCLRYWKATHRSPGQIHLVQRHPPSEESQAFQRQLTALIGYDVTDVSNVHDDELEFTRRGLVTPRMAEVASRDPKLYAMHPWVTSKPLPEYLWKKIANNCIFIVIHASTTSQTIKVSPDDTPGAILQSFFTKMAKKKSLMDIPESQSEQDFVLRVCGRDEYLVGETPIKNFQWVRHCLKNGEEIHVVLDTPPDPALDEVRKEEWPLVDDCTGVTGYHEQLTIHGKDHESVFTVSLWDCDRKFRVKIRGIDIPVLPRNTDLTVFVEANIQHGQQVLCQRRTSPKPFTEEVLWNVWLEFSIKIKDLPKGALLNLQIYCGKAPALSSKASAESPSSESKGKVQLLYYVNLLLIDHRFLLRRGEYVLHMWQISGKGEDQGSFNADKLTSATNPDKENSMSISILLDNYCHPIALPKHQPTPDPEGDRVRAEMPNQLRKQLEAIIATDPLNPLTAEDKELLWHFRYESLKHPKAYPKLFSSVKWGQQEIVAKTYQLLARREVWDQSALDVGLTMQLLDCNFSDENVRAIAVQKLESLEDDDVLHYLLQLVQAVKFEPYHDSALARFLLKRGLRNKRIGHFLFWFLRSEIAQSRHYQQRFAVILEAYLRGCGTAMLHDFTQQVQVIEMLQKVTLDIKSLSAEKYDVSSQVISQLKQKLENLQNSQLPESFRVPYDPGLKAGALAIEKCKVMASKKKPLWLEFKCADPTALSNETIGIIFKHGDDLRQDMLILQILRIMESIWETESLDLCLLPYGCISTGDKIGMIEIVKDATTIAKIQQSTVGNTGAFKDEVLNHWLKEKSPTEEKFQAAVERFVYSCAGYCVATFVLGIGDRHNDNIMITETGNLFHIDFGHILGNYKSFLGINKERVPFVLTPDFLFVMGTSGKKTSPHFQKFQDICVKAYLALRHHTNLLIILFSMMLMTGMPQLTSKEDIEYIRDALTVGKNEEDAKKYFLDQIEVCRDKGWTVQFNWFLHLVLGIKQGEKHSA | reduce binding by up to an order of magnitude
K256A: PI3Kγ RBD mutant (protein, UniProt P48736 1-1102, looked up, variant K256A) Phosphatidylinositol …: MELENYKQPVVLREDNCRRRRRMKPRSAAASLSSMELIPIEFVLPTSQRKCKSPETALLHVAGHGNVEQMKAQVWLRALETSVAADFYHRLGPHHFLLLYQKKGQWYEIYDKYQVVQTLDCLRYWKATHRSPGQIHLVQRHPPSEESQAFQRQLTALIGYDVTDVSNVHDDELEFTRRGLVTPRMAEVASRDPKLYAMHPWVTSKPLPEYLWKKIANNCIFIVIHRSTTSQTIKVSPDDTPGAILQSFFTKMAKKASLMDIPESQSEQDFVLRVCGRDEYLVGETPIKNFQWVRHCLKNGEEIHVVLDTPPDPALDEVRKEEWPLVDDCTGVTGYHEQLTIHGKDHESVFTVSLWDCDRKFRVKIRGIDIPVLPRNTDLTVFVEANIQHGQQVLCQRRTSPKPFTEEVLWNVWLEFSIKIKDLPKGALLNLQIYCGKAPALSSKASAESPSSESKGKVQLLYYVNLLLIDHRFLLRRGEYVLHMWQISGKGEDQGSFNADKLTSATNPDKENSMSISILLDNYCHPIALPKHQPTPDPEGDRVRAEMPNQLRKQLEAIIATDPLNPLTAEDKELLWHFRYESLKHPKAYPKLFSSVKWGQQEIVAKTYQLLARREVWDQSALDVGLTMQLLDCNFSDENVRAIAVQKLESLEDDDVLHYLLQLVQAVKFEPYHDSALARFLLKRGLRNKRIGHFLFWFLRSEIAQSRHYQQRFAVILEAYLRGCGTAMLHDFTQQVQVIEMLQKVTLDIKSLSAEKYDVSSQVISQLKQKLENLQNSQLPESFRVPYDPGLKAGALAIEKCKVMASKKKPLWLEFKCADPTALSNETIGIIFKHGDDLRQDMLILQILRIMESIWETESLDLCLLPYGCISTGDKIGMIEIVKDATTIAKIQQSTVGNTGAFKDEVLNHWLKEKSPTEEKFQAAVERFVYSCAGYCVATFVLGIGDRHNDNIMITETGNLFHIDFGHILGNYKSFLGINKERVPFVLTPDFLFVMGTSGKKTSPHFQKFQDICVKAYLALRHHTNLLIILFSMMLMTGMPQLTSKEDIEYIRDALTVGKNEEDAKKYFLDQIEVCRDKGWTVQFNWFLHLVLGIKQGEKHSA | reduce binding by up to an order of magnitude
